Test system: MS2 coat protein
Test: apparent KD of MS2 coat protein; designed switch direction (-1 OFF switch, 1 ON switch): -1; higher = weaker reporter binding
How it was run: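 Stalled E. coli RNA polymerase transcribed designed RNA switches on Illumina chips, which were then titrated with SNAP-549-labelled MS2 coat protein, doubling from 0.7 or 1.5 nM to 3 µM. Steps lasted from 0.8–1.5 h at the lowest concentration to 10–20 min at the highest. The apparent KD is each design's median over clusters of curve-fitted normalised fluorescence.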

[1] = Eterna round: R95, input ligand: microRNA oligo, concentration not stated
[2] = Eterna round: R95, input ligand: FMN 200 uM
[3] = Eterna round: R95, input ligand: none
[4] = input ligand: microRNA oligo, concentration not stated

Sequence	apparent KD of MS2 coat protein [1]	apparent KD of MS2 coat protein (input ligand: FMN 200 uM)	apparent KD of MS2 coat protein (input ligand: none)	further results
AAAAGGCUAGGAUAUACAUGAGGAUCACCCAUGUGUACUGGACAUGCGGUAUGCGGAUGUAGAAGGAGUAUAAA [Esrere] (puzzle: Exclusion 3)	22.4 nM			
GCUGCGCGAGGAUAUGCGGUUCGCGCGGUGGCCGCUGGCGGACAUGAGGAUCACCCAUGUAGAAGGCGUGCGGG [Apr-15 SS2-60] (puzzle: Exclusion 2)	11.7 nM			
CUUCUGUCAGGAUAUGCGAAUCACCGCUGGGUCAGCGGCGAGCAGAAGGGACAUGAGGAUCACCCAUGUAAAAU [Quriveer] (Eterna round: R97, puzzle: Exclusion 4)		211 nM	51.3 nM	
GGAAAACAUGAGGAUCACCCAUGUAAGGAUAUGCAAAAGGAUAUAGAAGGAAGAAAAAGCAGAAGGUACAAAGG [salish99-ex1_r3_099] (puzzle: Exclusion 1)	44.8 nM			apparent KD of MS2 coat protein [2]: 72.1 nM; apparent KD of MS2 coat protein [3]: 57.9 nM
AAGGAUAGAGGAUAUAUAUAGAUACAGAUUCAUGUAGAACUACAUGAGGAUCACCCAUGUAGAAGGCUAUCCUA [Fiskers Ex 2 - 10] (puzzle: Exclusion 2)	14.7 nM			
AGCUGUGGCCGAGGAUAUCUAAAUUCUCAAAACGAAAUAUAAUCGAACAUGAGGAUCACCCAUGUAGAGAAGGCGGUCUCAGCA [Eli eng2 - 032] (Eterna round: R96, puzzle: Exclusion NG 2)				apparent KD of MS2 coat protein [4]: 34.6 nM
ACAUGUUAUGUAGGAUAUUAUACACAUGAGGAUCACCCAUGUAACCGGAGGCUUUACUAUGAGUAUGAGAAGGGUAUGAACAUG [Ex NG2 #65] (Eterna round: R96, puzzle: Exclusion NG 2)				apparent KD of MS2 coat protein [4]: 64.2 nM
UACAUGAGGAUCACCCAUGUUUUAUCAUGUGUAAUAAUAAUGUAGGAUAUGUAUUUAUUUAUUUAACAGAAGGACAAUAAUAAA [JMF's solution 3] (Eterna round: R96, puzzle: Exclusion NG 3)		462 nM	423 nM	apparent KD of MS2 coat protein [4]: 435 nM
CGGUACUGAGGAUAUACAUGAGGAUCACCCAUGUGUUCUAGCUAGCGUACUGGCAUUUGUAGAAGGCGGUGCUG [JL-ex3-3.23 Brourd mod] (puzzle: Exclusion 3)	16.4 nM			
GGUGCGUUUGUGAGGAUAUGCUGGUCCUUGGAUCAGCAGAAGGCACAUGAGGAUCACCCAUGUGGUGUCCCUCC [salish99_Bmod_Ex4_040] (puzzle: Brourd's mod of Exclusion 4)	154 nM			
UAUUAGGGAGGAUAUCGCAGUUGCAACAUGAGGAUCACCCAUGUGAACAGCCUCACCAAUCGAGAAGGCCUGAGUG [Eternabot (L2) Solution 59] (Eterna round: R97, puzzle: Exclusion 5)		71 nM	75.5 nM	
AAGCAUGGAGGAUAUACAUGAGGAUCACCCAUGUCCAGGUCCACGGGUAUUUUGUUGCGUAGAAGGCCAUGUAG [Eternabot (L2) Solution 21] (Eterna round: R97, puzzle: Exclusion 3)		242 nM	46.8 nM	
UCGCGCCAAGGAUAUACAUGAGGAUCACCCAUGUUGAAAGAAAAGUUGUCCGGUCCCAGUAGAAGGUGGUUCCC [Eternabot (L2) Solution 90] (Eterna round: R97, puzzle: Exclusion 3)		23.5 nM	58.4 nM	
CCGGCUUAGGAGGAUAUCCCACCCGAAAGGGUGGGAGAAGGCCUAACAUGAGGAUCACCCAUGUGUCCUACCGG [Mod of Eli 15 - Jieux - Exclusion 6] (Eterna round: R97, puzzle: Exclusion 6)		91.2 nM	25.5 nM	
AAUAGCAAGUAGAUCCUAAACAUGAGGAUCACCCAUGUGCUCGUCUUGUAAAGUACUAUCACGAAAGUGAUAGUACA [Sensor 3, v1 - 57] (puzzle: Sensor v3, turn-off variant 1)	300 nM			apparent KD of MS2 coat protein [2]: 151 nM; apparent KD of MS2 coat protein [3]: 233 nM
CGGAUGUGAGGAUAUACAUGAGGAUCACCCAUGUGUGCCAGCUAGAUGACUGGCACUUGUAGAAGGCACGUCUG [Mat - Exclusion 3 - Mod of JL D91] (Eterna round: R96, puzzle: Exclusion 3)		25.5 nM	16.1 nM	apparent KD of MS2 coat protein [4]: 11.3 nM
AGUACUAACACGAAAGUGUUAGUACUAUAAGCUUGUGUUACAUGAGGAUCACCCAUGUCCUCAUAAGCUCGUCUUAU [JL-sv3-2.15 mat747 mod] (puzzle: Sensor v3, turn-off variant 2)	31.8 nM			apparent KD of MS2 coat protein [2]: 86.4 nM; apparent KD of MS2 coat protein [3]: 115 nM

Sequence	apparent KD of MS2 coat protein [1]	apparent KD of MS2 coat protein (input ligand: FMN 200 uM)	apparent KD of MS2 coat protein (input ligand: none)	further results
GGUCAAGGACAGCUCCGCGCUGCCCUUGACCGCUCAUUUACAUGAGGAUCACCCAUGUUUUUUGCUUGUCUUGUUUC [Atedorgela] (puzzle: Sensor v3, turn-off variant 2)	110 nM			apparent KD of MS2 coat protein [2]: 20 nM; apparent KD of MS2 coat protein [3]: 24.2 nM
UAUUAGUGAGGAUAUGAGUCGUAGAACAAUAGUACUACGUCUCAGAAGGUACAUGAGGAUCACCCAUGUUCCUU [Fiskers Ex 4 Super Stable 44 mod 34] (puzzle: Exclusion 4)	12 nM			
GAUCCGAUUGUCAGGAUAUUCAAAACGGCGCAAAAGAAGAAGGGACAUGAGGAUCACCCAUGUAUACGCCACCA [Usisbima] (Eterna round: R97, puzzle: Brourd's mod of Exclusion 4)		36.7 nM	332 nM	
CGUGGCUUUUACGUGAGUGGUGGGUGCAACAGGUGGGUUACAUGAGGAUCACCCAUGUGCUCACUUGCUCGUCUUUU [Grok-var2-10] (puzzle: Sensor v3, turn-off variant 2)	17.5 nM			apparent KD of MS2 coat protein [2]: 51.8 nM; apparent KD of MS2 coat protein [3]: 52.5 nM
CUACUCGUUGUGAGGAUAUCGUUUUCGUCACGGAUCGAGAAGGCACAUGAGGAUCACCCAUGUUUGAUGUGGAU [JR_BMOE4_Sub091] (puzzle: Brourd's mod of Exclusion 4)	30.9 nM			
CGUGUACUGCAGGAUAUCCUAGAUGCGGACAUCGGAGAAGGGCAGACAUGAGGAUCACCCAUGUGUGGCGGAGA [EX6 B.16] (Eterna round: R97, puzzle: Exclusion 6)		221 nM	67.3 nM	
AGCAAGUCAGGAUAUCAAAGCAGCUAUAUGCUGCCCGGGCUUGAGAAGGGACUUGAGGAUCACCCAAGUGAUAG [Titiar] (Eterna round: R97, puzzle: Exclusion 4)		101 nM	25.1 nM	
AAUACCCUGUUAGGAUAUAAUACCGAAGGAGUAUUAGAAGGGACAGUAAGGUACAUGAGGAUCACCCAUGUGAGAAUCUGUGCC [Edanxeve] (Eterna round: R96, puzzle: Exclusion NG 1)		107 nM	75.4 nM	apparent KD of MS2 coat protein [4]: 65.3 nM
ACAUGAGGAUCACCCAUGUCUGGCGGGUCCUCUCCGGCUGUUGAGGAUAUAGUUCGGUAUCCGCGCUAGAAGGUGAGGGCCGGC [Aenatbe mod 20] (Eterna round: R96, puzzle: Exclusion NG 3)		21.3 nM	16.5 nM	apparent KD of MS2 coat protein [4]: 14.6 nM
AAGAAACAUGAGGAUCACCCAUGUGAGGAUAUGAAAAAGAAAAGAAAAGAAAGAAGGUUCAGAAGGCACAAAGG [salish99-ex1_r3_027] (Eterna round: R96, puzzle: Exclusion 1)				apparent KD of MS2 coat protein [4]: 25.4 nM
AUGUUGCGAGGAUAUAUAAGGAGGUUAAAAUUUAUUAUGGAACAUGAGGAUCACCCAUGUAGAAGGUGCAUAAC [JR_Ex2_Sub038] (Eterna round: R97, puzzle: Exclusion 2)		49.6 nM	55.7 nM	
CUUGUUUAUGUAGGAUAUGCCUGGCGUGCCUUUGCAGAAGGACAUGAGGAUCACCCAUGUAACAUGAGGCUCACCCAUGUCGCG [salish99_ExNG1_r04_105] (Eterna round: R96, puzzle: Exclusion NG 1)		293 nM	327 nM	apparent KD of MS2 coat protein [4]: 213 nM
AGCUGUGGCCGAGGAUAUCCACAUGAGGAUCACCCAUGUCGAUACCAGCGUAAGCUGGAUAUAAGGGAGAAGGCGGUCUCAGCA [Eli eng2 - 053] (Eterna round: R96, puzzle: Exclusion NG 2)		6.2 nM	10.5 nM	apparent KD of MS2 coat protein [4]: 6.51 nM
AUAAUGUGAGGAUAUCAGUCGACUAGCGAUAGCUAGUCGACUGAGAAGGUACAUGAGGAUCACCCAUGUAGAUC [E4/20-A4] (Eterna round: R97, puzzle: Exclusion 4)		70.6 nM	31 nM	
GGUCAGAUGGUAGGAUAUUCAUAUCGAGUGACCCUUUCAUAACAUGAGGAUCACCCAUGUCGGUGGGAGAAGGGCCGUACGGCG [salish99_ExNG02_R04_014] (Eterna round: R96, puzzle: Exclusion NG 2)		26.9 nM	50.7 nM	apparent KD of MS2 coat protein [4]: 29.3 nM
ACAAGCUUUAGGCGUGUGAACAUGAGGAUCACCCAUGUAAAGUAGGUUAGGAGGUCUGUAAGGGAUGCUCGUCUUAU [JR_SWV3TOV1_Sub090] (puzzle: Sensor v3, turn-off variant 1)	45.5 nM			apparent KD of MS2 coat protein [2]: 89.4 nM; apparent KD of MS2 coat protein [3]: 113 nM
UAUGUCUUUGUGAGGAUAUACUUUGUUUGGUCGUAGUAGAAGGCACAUGAGGAUCACCCAUGUAGAUUUUUGGU [JR_BME4_Sub011] (puzzle: Brourd's mod of Exclusion 4)	20.1 nM			
